Numbering of substitutions follows the chain as printed. In names and notes the source's numbering stands. Read-outs that look alike come from different tables or passages of the source. Ends that are not written are not given here.
Key:
[1] = test system: Kv1.2 channels; test: Two-electrode voltage-clamp on Kv1.2 expressed in X. laevis oocytes; settings: for IC50: read-out: IC50 for Kv1.2, two-electrode voltage-clamp, X. laevis oocytes, concentration-response curve fitted with Hill equation, mean ± standard error, n ≥ 3
Protocol: (§1) For the expression of the voltage-gated potassium channels (rKv1.1, rKv1.2, hKv1.3, rKv1.4, rKv1.5, rKv1.6, Shaker IR, hKv3.1, rKv4.3, and hERG) in Xenopus laevis oocytes, the linearized plasmids were transcribed using the T7 or SP6 mMESSAGE-mMACHINE transcription kit (Ambion). The harvesting of stage V–VI oocytes from an anaesthetized female X. laevis frog was previously described[59]. Oocytes were injected with 50 nL of cRNA at a concentration of 1 ng/nL using a micro-injector (Drummond Scientific, USA). The oocytes were incubated in a solution containing (in mM): NaCl, 96; KCl, 2; CaCl2, 1.8; MgCl2, 2 and HEPES, 5 (pH 7.4), supplemented with 50 mg/L gentamycin sulfate.
(§2) Two-electrode voltage-clamp recordings were performed at room temperature (18–22 °C) using a Geneclamp 500 amplifier (Molecular Devices, USA) controlled by a pClamp data acquisition system (Axon Instruments, USA). Whole cell currents from oocytes were recorded 1–4 days after injection. Bath solution composition was ND96 (in mM): NaCl, 96; KCl, 2; CaCl2, 1.8; MgCl2, 2 and HEPES, 5 (pH 7.4) or HK (in mM): NaCl, 2; KCl, 96; CaCl2, 1.8; MgCl2, 2 and HEPES, 5 (pH 7.4). Voltage and current electrodes were filled with 3 M KCl. Resistances of both electrodes were kept between 0.7 and 1.5 MΩ. The elicited currents were filtered at 0.5 kHz and sampled at 2 kHz (for potassium currents) or filtered at 2 kHz and sampled at 20 kHz (for sodium currents) using a four-pole low-pass Bessel filter. Leak subtraction was performed using a -P/4 protocol. Kv1.1–Kv1.6 and Shaker currents were evoked by 250 ms depolarizations to 0 mV followed by a 250 ms pulse to −50 mV, from a holding potential of −90 mV. Current traces of hERG channels were elicited by applying a +40 mV prepulse for 2 s followed by a step to −120 mV for 2 s. […] In order to investigate the current–voltage relationship, current traces were evoked by 10 mV depolarization steps from a holding potential of −90 mV. To assess the concentration dependency of the toxin induced inhibitory effects, a concentration–response curve was constructed, in which the percentage of current inhibition was plotted as a function of toxin concentration. Data were fitted with the Hill equation: y = 100/[1 + (IC50/[toxin])^h], were y is the amplitude of the toxin-induced effect, IC50 is the toxin concentration at half-maximal efficacy, [toxin] is the toxin concentration, and h is the Hill coefficient. GV curves were calculated from IV relationships as follows: gK = IK/(Em−EK) with EK = (RT/zF)ln[K #0]o/[K #0]i. In these equations gK represents the conductance, IK the potassium current, Em the membrane potential, EK the reversal potential, R the gas constant (8.31 J/K mol), T the temperature, z the charge of the ion (for K+ ions: z = 1), F the Faraday’s constant (96.500 C/mol), [K #0]o and [K #0]i respectively are the extracellular and intracellular K+ ion concentrations. The values of IK or gK were plotted as function of voltage and fitted using the Boltzmann equation: gK/gmax = [1 + exp(Vg−V)/k]−1, were gmax represents maximal gK, Vg is the voltage corresponding to half-maximal conductance, and k is the slope factor. Comparison of two sample means was made using a paired Student’s t test (P < 0.05). All data represent at least three independent experiments (n ≥ 3) and are presented as mean ± standard error.

[2] = test system: Kv1.6 channels; test: Two-electrode voltage-clamp on Kv1.6 expressed in X. laevis oocytes; settings: for IC50: read-out: IC50 for Kv1.6, two-electrode voltage-clamp, X. laevis oocytes, concentration-response curve fitted with Hill equation, mean ± standard error, n ≥ 3
Protocol: as §1, §2

[3] = target: voltage-gated potassium channel rKv1.2 (rat (from the prefix in rKv1.2)) (UniProt P63142)
Chain of voltage-gated potassium channel rKv1.2 (rat (from the prefix in rKv1.2)) (P63142 whole entry): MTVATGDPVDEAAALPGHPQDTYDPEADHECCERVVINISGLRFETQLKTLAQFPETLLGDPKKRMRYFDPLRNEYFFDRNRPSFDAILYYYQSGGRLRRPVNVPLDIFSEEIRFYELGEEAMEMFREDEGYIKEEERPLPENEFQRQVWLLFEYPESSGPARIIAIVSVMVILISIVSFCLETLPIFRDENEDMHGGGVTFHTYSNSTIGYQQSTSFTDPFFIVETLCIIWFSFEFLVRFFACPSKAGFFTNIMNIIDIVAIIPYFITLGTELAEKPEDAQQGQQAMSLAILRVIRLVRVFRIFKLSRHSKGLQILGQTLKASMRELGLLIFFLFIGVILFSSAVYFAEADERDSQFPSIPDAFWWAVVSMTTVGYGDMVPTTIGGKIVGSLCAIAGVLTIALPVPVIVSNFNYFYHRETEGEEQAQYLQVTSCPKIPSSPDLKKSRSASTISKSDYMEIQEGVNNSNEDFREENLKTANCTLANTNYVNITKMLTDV

[4] = target: voltage-gated potassium channel rKv1.6 (rat (from the prefix in rKv1.6)) (UniProt P17659)
Chain of voltage-gated potassium channel rKv1.6 (rat (from the prefix in rKv1.6)) (P17659 whole entry): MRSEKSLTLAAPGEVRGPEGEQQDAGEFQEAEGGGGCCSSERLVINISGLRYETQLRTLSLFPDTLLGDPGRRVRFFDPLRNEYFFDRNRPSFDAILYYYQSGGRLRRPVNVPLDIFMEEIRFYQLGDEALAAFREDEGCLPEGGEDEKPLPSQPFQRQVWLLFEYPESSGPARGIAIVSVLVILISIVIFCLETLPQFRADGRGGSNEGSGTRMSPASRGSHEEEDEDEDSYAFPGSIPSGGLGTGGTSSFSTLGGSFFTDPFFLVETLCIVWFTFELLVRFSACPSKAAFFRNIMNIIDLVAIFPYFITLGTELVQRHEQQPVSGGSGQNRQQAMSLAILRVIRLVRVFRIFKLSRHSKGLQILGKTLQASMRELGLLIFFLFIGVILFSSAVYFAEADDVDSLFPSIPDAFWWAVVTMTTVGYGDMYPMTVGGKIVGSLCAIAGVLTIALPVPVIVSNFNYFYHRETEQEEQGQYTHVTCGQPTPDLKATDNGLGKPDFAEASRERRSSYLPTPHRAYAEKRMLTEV

[5] = target: voltage-gated potassium channel rKv1.2 (rat (from the prefix in rKv1.2)) (UniProt P63142); remark: listed apart in the source
[6] = target: voltage-gated potassium channel rKv1.6 (rat (from the prefix in rKv1.6)) (UniProt P17659); remark: listed apart in the source

rAtPDF2.3[G36N]: rAtPDF2.3 variant with both Lysine33 and Asparagine36 (KCXN toxin signature) (RTCESKSHRFKGPCVSTHNCANVCHNEGFGGGKCRNFRRRCYCTRHC; ends and bridges not checked; cysteine pairing not given here)
fold decrease of Kv1.2 IC50 as compared to rAtPDF2.3 ([1]; ratio of IC50 values): 2.1 fold | IC50 [1]: 611 ± 91 nM | fold decrease of Kv1.6 IC50 as compared to rAtPDF2.3 ([2]; ratio of IC50 values): 7.1 fold | IC50 [2]: 138 ± 38 nM

AtPDF2.3 [K33A][G36N]: rAtPDF2.3 variant containing only Asparagine36 (CXN toxin signature) (RTCESKSHRFKGPCVSTHNCANVCHNEGFGGGACRNFRRRCYCTRHC; ends and bridges not checked; cysteine pairing not given here)
IC50 [1]: 1380 ± 133 nM | IC50 [2]: 366 ± 114 nM

rAtPDF2.3[K33A]: rAtPDF2.3 variant with neither Lysine33 nor Asparagine36, devoid of the toxin signature (RTCESKSHRFKGPCVSTHNCANVCHNEGFGGGACRGFRRRCYCTRHC; ends and bridges not checked; cysteine pairing not given here)
IC50 [1]: 2040 ± 383 nM | IC50 [2]: 3500 ± 235 nM

recombinant Arabidopsis thaliana plant defensin AtPDF2.3 (from UniProt Q9ZUL7 31-77) (peptide)
IC50 of inhibition of Kv1.2 potassium current, two-electrode voltage clamp on X. laevis oocytes, concentration-response curve [3]: 1300 nM | inhibition of the Kv1.2 potassium current by 2 μM rAtPDF2.3 in HK solution [3]: 66% | inhibition of the Kv1.2 potassium current by 2 μM rAtPDF2.3 in ND96 solution (data not shown) [3]: 59% | IC50 of inhibition of Kv1.6 potassium current, two-electrode voltage clamp on X. laevis oocytes, concentration-response curve [4]: 978 nM

B1: rAtPDF2.3[K33A] (peptide)
chain: RTCESKSHRFKGPCVSTHNCANVCHNEGFGGGACRGFRRRCYCTRHC
modifications: not fully specified; cysteine pairing not given here
IC50 of inhibition of Kv1.2 potassium current, two-electrode voltage clamp on X. laevis oocytes, concentration-response curve [5]: 2040 nM | IC50 of inhibition of Kv1.6 potassium current, two-electrode voltage clamp on X. laevis oocytes, concentration-response curve [6]: 3500 nM

B2: rAtPDF2.3[G36N] (peptide)
chain: B1 chain with A33K, G36N
modifications: not fully specified; cysteine pairing not given here
IC50 of inhibition of Kv1.2 potassium current, two-electrode voltage clamp on X. laevis oocytes, concentration-response curve [5]: 611 nM | IC50 of inhibition of Kv1.6 potassium current, two-electrode voltage clamp on X. laevis oocytes, concentration-response curve [6]: 138 nM

B3: rAtPDF2.3[K33A][G36N] (peptide)
chain: B1 chain with G36N
modifications: not fully specified; cysteine pairing not given here
IC50 of inhibition of Kv1.2 potassium current, two-electrode voltage clamp on X. laevis oocytes, concentration-response curve [5]: 1380 nM | IC50 of inhibition of Kv1.6 potassium current, two-electrode voltage clamp on X. laevis oocytes, concentration-response curve [6]: 366 nM

— article PMC5004176, “The antifungal plant defensin AtPDF2.3 from Arabidopsis thaliana blocks potassium channels” (Scientific Reports, 2016)
